* marks the point of attachment. Palmitoyl = CCCCCCCCCCCCCCCC(=O)*
B1: Compound 83 (peptide)
peptide: Palmitoyl-TNAGRSDTRQQYRKLLF-NH2
SMILES: CCCCCCCCCCCCCCCC(=O)N[C@H](C(=O)N[C@@H](CC(N)=O)C(=O)N[C@@H](C)C(=O)NCC(=O)N[C@@H](CCCNC(=N)N)C(=O)N[C@@H](CO)C(=O)N[C@@H](CC(=O)O)C(=O)N[C@H](C(=O)N[C@@H](CCCNC(=N)N)C(=O)N[C@@H](CCC(N)=O)C(=O)N[C@@H](CCC(N)=O)C(=O)N[C@@H](Cc1ccc(O)cc1)C(=O)N[C@@H](CCCNC(=N)N)C(=O)N[C@@H](CCCCN)C(=O)N[C@@H](CC(C)C)C(=O)N[C@@H](CC(C)C)C(=O)N[C@@H](Cc1ccccc1)C(N)=O)[C@@H](C)O)[C@@H](C)O
B2: Compound 84 (peptide)
peptide: Palmitoyl-TNAGRSDTRQQYRKLLK-NH2
SMILES: CCCCCCCCCCCCCCCC(=O)N[C@H](C(=O)N[C@@H](CC(N)=O)C(=O)N[C@@H](C)C(=O)NCC(=O)N[C@@H](CCCNC(=N)N)C(=O)N[C@@H](CO)C(=O)N[C@@H](CC(=O)O)C(=O)N[C@H](C(=O)N[C@@H](CCCNC(=N)N)C(=O)N[C@@H](CCC(N)=O)C(=O)N[C@@H](CCC(N)=O)C(=O)N[C@@H](Cc1ccc(O)cc1)C(=O)N[C@@H](CCCNC(=N)N)C(=O)N[C@@H](CCCCN)C(=O)N[C@@H](CC(C)C)C(=O)N[C@@H](CC(C)C)C(=O)N[C@@H](CCCCN)C(N)=O)[C@@H](C)O)[C@@H](C)O
B3: Compound 85 (peptide)
peptide: Palmitoyl-TNAGRSDTRQQYRKLLFS-NH2
SMILES: CCCCCCCCCCCCCCCC(=O)N[C@H](C(=O)N[C@@H](CC(N)=O)C(=O)N[C@@H](C)C(=O)NCC(=O)N[C@@H](CCCNC(=N)N)C(=O)N[C@@H](CO)C(=O)N[C@@H](CC(=O)O)C(=O)N[C@H](C(=O)N[C@@H](CCCNC(=N)N)C(=O)N[C@@H](CCC(N)=O)C(=O)N[C@@H](CCC(N)=O)C(=O)N[C@@H](Cc1ccc(O)cc1)C(=O)N[C@@H](CCCNC(=N)N)C(=O)N[C@@H](CCCCN)C(=O)N[C@@H](CC(C)C)C(=O)N[C@@H](CC(C)C)C(=O)N[C@@H](Cc1ccccc1)C(=O)N[C@@H](CO)C(N)=O)[C@@H](C)O)[C@@H](C)O
B4: Compound 34 (peptide)
peptide: Palmitoyl-LYLHSLIFMAFFSEKKYLWGFT-NH2
SMILES: CCCCCCCCCCCCCCCC(=O)N[C@@H](CC(C)C)C(=O)N[C@@H](Cc1ccc(O)cc1)C(=O)N[C@@H](CC(C)C)C(=O)N[C@@H](Cc1c[nH]cn1)C(=O)N[C@@H](CO)C(=O)N[C@@H](CC(C)C)C(=O)N[C@H](C(=O)N[C@@H](Cc1ccccc1)C(=O)N[C@@H](CCSC)C(=O)N[C@@H](C)C(=O)N[C@@H](Cc1ccccc1)C(=O)N[C@@H](Cc1ccccc1)C(=O)N[C@@H](CO)C(=O)N[C@@H](CCC(=O)O)C(=O)N[C@@H](CCCCN)C(=O)N[C@@H](CCCCN)C(=O)N[C@@H](Cc1ccc(O)cc1)C(=O)N[C@@H](CC(C)C)C(=O)N[C@@H](Cc1c[nH]c2ccccc12)C(=O)NCC(=O)N[C@@H](Cc1ccccc1)C(=O)N[C@H](C(N)=O)[C@@H](C)O)[C@@H](C)CC
B5: Compound 86 (peptide)
peptide: Palmitoyl-TNAGRSDTRQQYRKLLFA-NH2
SMILES: CCCCCCCCCCCCCCCC(=O)N[C@H](C(=O)N[C@@H](CC(N)=O)C(=O)N[C@@H](C)C(=O)NCC(=O)N[C@@H](CCCNC(=N)N)C(=O)N[C@@H](CO)C(=O)N[C@@H](CC(=O)O)C(=O)N[C@H](C(=O)N[C@@H](CCCNC(=N)N)C(=O)N[C@@H](CCC(N)=O)C(=O)N[C@@H](CCC(N)=O)C(=O)N[C@@H](Cc1ccc(O)cc1)C(=O)N[C@@H](CCCNC(=N)N)C(=O)N[C@@H](CCCCN)C(=O)N[C@@H](CC(C)C)C(=O)N[C@@H](CC(C)C)C(=O)N[C@@H](Cc1ccccc1)C(=O)N[C@@H](C)C(N)=O)[C@@H](C)O)[C@@H](C)O
B6: Compound 87 (peptide)
peptide: Palmitoyl-TNAGRSDTRQQYRKLLA-NH2
SMILES: CCCCCCCCCCCCCCCC(=O)N[C@H](C(=O)N[C@@H](CC(N)=O)C(=O)N[C@@H](C)C(=O)NCC(=O)N[C@@H](CCCNC(=N)N)C(=O)N[C@@H](CO)C(=O)N[C@@H](CC(=O)O)C(=O)N[C@H](C(=O)N[C@@H](CCCNC(=N)N)C(=O)N[C@@H](CCC(N)=O)C(=O)N[C@@H](CCC(N)=O)C(=O)N[C@@H](Cc1ccc(O)cc1)C(=O)N[C@@H](CCCNC(=N)N)C(=O)N[C@@H](CCCCN)C(=O)N[C@@H](CC(C)C)C(=O)N[C@@H](CC(C)C)C(=O)N[C@@H](C)C(N)=O)[C@@H](C)O)[C@@H](C)O
B7: Compound 88 (peptide)
peptide: Palmitoyl-TNAGRSDTRQQYRKLA-NH2
SMILES: CCCCCCCCCCCCCCCC(=O)N[C@H](C(=O)N[C@@H](CC(N)=O)C(=O)N[C@@H](C)C(=O)NCC(=O)N[C@@H](CCCNC(=N)N)C(=O)N[C@@H](CO)C(=O)N[C@@H](CC(=O)O)C(=O)N[C@H](C(=O)N[C@@H](CCCNC(=N)N)C(=O)N[C@@H](CCC(N)=O)C(=O)N[C@@H](CCC(N)=O)C(=O)N[C@@H](Cc1ccc(O)cc1)C(=O)N[C@@H](CCCNC(=N)N)C(=O)N[C@@H](CCCCN)C(=O)N[C@@H](CC(C)C)C(=O)N[C@@H](C)C(N)=O)[C@@H](C)O)[C@@H](C)O
B8: Compound 89 (peptide)
peptide: Palmitoyl-TNAGRSDTRQQYRKAL-NH2
SMILES: CCCCCCCCCCCCCCCC(=O)N[C@H](C(=O)N[C@@H](CC(N)=O)C(=O)N[C@@H](C)C(=O)NCC(=O)N[C@@H](CCCNC(=N)N)C(=O)N[C@@H](CO)C(=O)N[C@@H](CC(=O)O)C(=O)N[C@H](C(=O)N[C@@H](CCCNC(=N)N)C(=O)N[C@@H](CCC(N)=O)C(=O)N[C@@H](CCC(N)=O)C(=O)N[C@@H](Cc1ccc(O)cc1)C(=O)N[C@@H](CCCNC(=N)N)C(=O)N[C@@H](CCCCN)C(=O)N[C@@H](C)C(=O)N[C@@H](CC(C)C)C(N)=O)[C@@H](C)O)[C@@H](C)O
B9: Compound 90 (peptide)
peptide: Palmitoyl-TNAGRSDTRQQYRALL-NH2
SMILES: CCCCCCCCCCCCCCCC(=O)N[C@H](C(=O)N[C@@H](CC(N)=O)C(=O)N[C@@H](C)C(=O)NCC(=O)N[C@@H](CCCNC(=N)N)C(=O)N[C@@H](CO)C(=O)N[C@@H](CC(=O)O)C(=O)N[C@H](C(=O)N[C@@H](CCCNC(=N)N)C(=O)N[C@@H](CCC(N)=O)C(=O)N[C@@H](CCC(N)=O)C(=O)N[C@@H](Cc1ccc(O)cc1)C(=O)N[C@@H](CCCNC(=N)N)C(=O)N[C@@H](C)C(=O)N[C@@H](CC(C)C)C(=O)N[C@@H](CC(C)C)C(N)=O)[C@@H](C)O)[C@@H](C)O
B10: Compound 91 (peptide)
peptide: Palmitoyl-TNAGRSDTRQQYAKLL-NH2
SMILES: CCCCCCCCCCCCCCCC(=O)N[C@H](C(=O)N[C@@H](CC(N)=O)C(=O)N[C@@H](C)C(=O)NCC(=O)N[C@@H](CCCNC(=N)N)C(=O)N[C@@H](CO)C(=O)N[C@@H](CC(=O)O)C(=O)N[C@H](C(=O)N[C@@H](CCCNC(=N)N)C(=O)N[C@@H](CCC(N)=O)C(=O)N[C@@H](CCC(N)=O)C(=O)N[C@@H](Cc1ccc(O)cc1)C(=O)N[C@@H](C)C(=O)N[C@@H](CCCCN)C(=O)N[C@@H](CC(C)C)C(=O)N[C@@H](CC(C)C)C(N)=O)[C@@H](C)O)[C@@H](C)O
B11: Compound 92 (peptide)
peptide: Palmitoyl-TNAGRSDTRQQARKLL-NH2
SMILES: CCCCCCCCCCCCCCCC(=O)N[C@H](C(=O)N[C@@H](CC(N)=O)C(=O)N[C@@H](C)C(=O)NCC(=O)N[C@@H](CCCNC(=N)N)C(=O)N[C@@H](CO)C(=O)N[C@@H](CC(=O)O)C(=O)N[C@H](C(=O)N[C@@H](CCCNC(=N)N)C(=O)N[C@@H](CCC(N)=O)C(=O)N[C@@H](CCC(N)=O)C(=O)N[C@@H](C)C(=O)N[C@@H](CCCNC(=N)N)C(=O)N[C@@H](CCCCN)C(=O)N[C@@H](CC(C)C)C(=O)N[C@@H](CC(C)C)C(N)=O)[C@@H](C)O)[C@@H](C)O
B12: Compound 93 (peptide)
peptide: Palmitoyl-TNAGRSDTRQAYRKLL-NH2
SMILES: CCCCCCCCCCCCCCCC(=O)N[C@H](C(=O)N[C@@H](CC(N)=O)C(=O)N[C@@H](C)C(=O)NCC(=O)N[C@@H](CCCNC(=N)N)C(=O)N[C@@H](CO)C(=O)N[C@@H](CC(=O)O)C(=O)N[C@H](C(=O)N[C@@H](CCCNC(=N)N)C(=O)N[C@@H](CCC(N)=O)C(=O)N[C@@H](C)C(=O)N[C@@H](Cc1ccc(O)cc1)C(=O)N[C@@H](CCCNC(=N)N)C(=O)N[C@@H](CCCCN)C(=O)N[C@@H](CC(C)C)C(=O)N[C@@H](CC(C)C)C(N)=O)[C@@H](C)O)[C@@H](C)O
B13: Compound 94 (peptide)
peptide: Palmitoyl-AGRSDTRQQYRKLLFA-NH2
SMILES: CCCCCCCCCCCCCCCC(=O)N[C@@H](C)C(=O)NCC(=O)N[C@@H](CCCNC(=N)N)C(=O)N[C@@H](CO)C(=O)N[C@@H](CC(=O)O)C(=O)N[C@H](C(=O)N[C@@H](CCCNC(=N)N)C(=O)N[C@@H](CCC(N)=O)C(=O)N[C@@H](CCC(N)=O)C(=O)N[C@@H](Cc1ccc(O)cc1)C(=O)N[C@@H](CCCNC(=N)N)C(=O)N[C@@H](CCCCN)C(=O)N[C@@H](CC(C)C)C(=O)N[C@@H](CC(C)C)C(=O)N[C@@H](Cc1ccccc1)C(=O)N[C@@H](C)C(N)=O)[C@@H](C)O

What follows are binders tested against PTHR1 receptor.
Sequence of PTHR1 receptor (P25961 whole entry): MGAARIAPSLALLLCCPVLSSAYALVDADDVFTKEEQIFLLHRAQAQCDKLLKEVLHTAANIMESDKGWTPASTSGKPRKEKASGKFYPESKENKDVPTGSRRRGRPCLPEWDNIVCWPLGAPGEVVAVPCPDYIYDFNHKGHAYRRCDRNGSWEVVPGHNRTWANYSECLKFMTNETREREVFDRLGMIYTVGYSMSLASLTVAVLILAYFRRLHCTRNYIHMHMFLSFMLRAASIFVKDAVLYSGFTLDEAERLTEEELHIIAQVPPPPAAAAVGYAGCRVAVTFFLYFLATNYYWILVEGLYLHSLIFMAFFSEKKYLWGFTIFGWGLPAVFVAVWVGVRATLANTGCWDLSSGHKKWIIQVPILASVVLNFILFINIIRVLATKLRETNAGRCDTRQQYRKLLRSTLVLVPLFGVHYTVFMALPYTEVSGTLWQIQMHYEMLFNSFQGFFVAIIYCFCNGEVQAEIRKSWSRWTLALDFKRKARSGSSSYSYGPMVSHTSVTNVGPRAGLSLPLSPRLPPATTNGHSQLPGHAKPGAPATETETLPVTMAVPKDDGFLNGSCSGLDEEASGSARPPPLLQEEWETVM

Compared with B1, B2 is higher in Fold Shift of EC50: 7 fold for the first, 9.1 fold for the second.

First: B3
Second: B4
The Fold Shift of EC50 of the first is higher: 6.9 fold for the first, 1.2 fold for the second.

Going from B5 to B6, the Fold Shift of EC50 rises from 3.6 fold to 4.1 fold.

Compared with B7, B8 is lower in Fold Shift of EC50: 2.8 fold for the first, 2.3 fold for the second.

B9 and B10 are the same in Fold Shift of EC50: 2 fold for the first, 2 fold for the second.

Compared with B11, B12 is higher in Fold Shift of EC50: 5 fold for the first, 13.4 fold for the second.

B13 was tested, and the Fold Shift of EC50 was 18.7 fold.

Compared with B1, B2 is lower in Inhibition of Maximal Response: -5.8% for the first, -25.2% for the second.

First: B3
Second: B4
The Inhibition of Maximal Response of the first is higher: 19.5% for the first, 4.2% for the second.

First: B5
Second: B6
The Inhibition of Maximal Response of the first is lower: 5.2% for the first, 8% for the second.

First: B7
Second: B8
The Inhibition of Maximal Response of the first is lower: -25% for the first, -20.4% for the second.

Going from B9 to B10, the Inhibition of Maximal Response falls from 21% to 9.8%.

Going from B11 to B12, the Inhibition of Maximal Response falls from 8.3% to -67%.

B13 was tested, and the Inhibition of Maximal Response was -24.4%.

From patent US20110294738A1, “PTHR1 RECEPTOR COMPOUNDS” (priority 2008, published 2011)
